From PMC11187310, “Are there double knots in proteins? Prediction and in vitro verification based on TrmD-Tm1570 fusion from C. nitroreducens” (Frontiers in Molecular Biosciences, 2023) come the findings set out here.

In general, stoichiometry N refers to a count of units in the complex or per binding partner.

Data set [1] concerns the target Tm1570 domain of CnTrmD-Tm1570 (residues 241-433) (Calditerrivibrio nitroreducens). Kind of data set: SEC; preparative Superdex 75 column; running buffer 50 mM Hepes, 300 mM NaCl, 10% glycerol, 1 mM TCEP, pH 7.4; proteins refolded from urea; oligomer state judged by retention volumes. (In gel filtration, larger molecules generally elute earlier.)
Data set [2] deals with the molecule itself. The data set is described as above.

As to “Tm1570 domain of CnTrmD-Tm1570 (residues 241-433) (domain or fragment)”, the stoichiometry N in data set [1] stood at 2.

B1: single-domain EcTrmD (enzyme, E. coli (from the label EcTrmD), UniProt P0A873 1-255, looked up)
chain: MWIGIISLFPEMFRAITDYGVTGRAVKNGLLSIQSWSPRDFTHDRHRTVDDRPYGGGPGMLMMVQPLRDAIHAAKAAAGEGAKVIYLSPQGRKLDQAGVSELATNQKLILVCGRYEGIDERVIQTEIDEEWSIGDYVLSGGELPAMTLIDSVSRFIPGVLGHEASATEDSFAEGLLDCPHYTRPEVLEGMEVPPVLLSGNHAEIRRWRLKQSLGRTWLRRPELLENLALTEEQARLLAEFKTEHAQQQHKHDGMA
notes: tRNA methyltransferase D (TrmD), single-domain protein, labelled EcTrmD; 28.4 kDa monomer; The printed monomer mass of 28.4 kDa fits the whole protein
For B1, the binding result in data set [2] is on record as “binds”.

B2: TrmD domain of CnTrmD-Tm1570 (residues 1-240) (domain or fragment, Calditerrivibrio nitroreducens, UniProt E4THH1 1-240, looked up)
chain: MKRYNVITIFPEMINEIFKYGVLSKGIDIGLFRVNPINLRDYTEDKHKTVDDYQYGGGHGLVMKPEPIYKAIADLKSKKDTHVVFLDPRGEQFTQKTAERLYNYDDITFVCGRYEGIDDRVRELMADEMISIGDFVITGGELAAVTIIDAVARLIPGVLGDENSPNEESFTTGLLEYPHFTRPAEFMGKKVPEVLISGNHEEIRRWRLTESIKTTLQNRPDMILRKSLSREEEQILWSLT
notes: TrmD domain of TrmD-Tm1570 of Calditerrivibrio nitroreducens, UniProtKB E4THH1, residues 1-240; 27.5 kDa monomer; Truncated version of m1
On to B2, for which the “stoichiometry N” value in data set [2] turned out to be 2.

B3: TrmD-Tm1570 fusion protein from Calditerrivibrio nitroreducens (enzyme, UniProt E4THH1 1-433, looked up)
chain: MKRYNVITIFPEMINEIFKYGVLSKGIDIGLFRVNPINLRDYTEDKHKTVDDYQYGGGHGLVMKPEPIYKAIADLKSKKDTHVVFLDPRGEQFTQKTAERLYNYDDITFVCGRYEGIDDRVRELMADEMISIGDFVITGGELAAVTIIDAVARLIPGVLGDENSPNEESFTTGLLEYPHFTRPAEFMGKKVPEVLISGNHEEIRRWRLTESIKTTLQNRPDMILRKSLSREEEQILWSLTRGVQRKYNIYVALMHYPMRDKEGKVVTTSITNMDLHDISRSCRTFGVKNYFVVNPMPAQREIASRVVRHWIKGYGATYNENRKEAFEYTIITDSLASVIKSIEEKESGSPIIIATTARYQQKAISIEKLKEIADRPILLLFGTGWGFVDDILEFADYVLKPIHGVGDFNHLSVRSAVAIYLDRINRSFQEDIL
notes: TrmD-Tm1570 (PF01746-PF09936 architecture) of Calditerrivibrio nitroreducens, UniProtKB E4THH1; full-length protein, residues 1-433 by the limits of the two truncated domains; 49.6 kDa monomer; Codon-optimized synthetic gene in pET28b; further details of the constructs are in SI Materials and Methods; also called CnTrmD-Tm1570; fusion TrmD-Tm1570
Turning to B3, in data set [2], the “stoichiometry N” value stood at 2.
